In US9340577B2, “HLA binding motifs and peptides and their uses” (priority 1992, dated 2016):
No end group written: not given here.

Molecular target: HLA-A*0201 (HLA-A2.1) (Homo sapiens, UniProt P04439, D140Y/D185E/D98H/E176V/E277Q/G131W/G231S/I119V/I121R/I166T/I218V/L300P/L318F/N151K/N90K/P208A/P217A/Q86G/Q94H/R138H/R169H/T345S)
Test: biochemical
Type: binding

Substance | binding to HLA-A2.1 (column 3; no allele head shown for these rows) | A2.1 | other results
11546 (SLLPAIVEL) [Peptide 11546] |  |  | A2.1 Binding: 0.19
AALREEEEGV | 0 |  | 
AATSSSSPLV | 0 |  | 
AISRKMVELV |  | 0 | 
ALEAQQEA |  | 0 | 
ALEAQQEAL |  | <0.0003 | 
ALEAQQEALGL | 0.0001 |  | 
ALNKMFBQV [Peptide 1323.04] |  |  | A*0201: 0.0260
AMBRWGLLV [Peptide 1334.08] |  |  | A*0201: 0.1400
ATSSSSPLV | 0.0007 |  | 
ATSSSSPLVL | 0 |  | 
ATVGIJIGV [Peptide 1345.02] |  |  | A*0201: 0.1595
AVITKKVA | 0 |  | 
AVITKKVAD |  | <0.0002 | 
AVITKKVADL |  | 0 | 
AVITKKVADLV | 0 |  | 
BLLAKTBPV [Peptide 1329.15] |  |  | A*0201: 0.1100
BLTIHYNYV [Peptide 1323.08] |  |  | A*0201: 0.0430
BQLAKTBPV [Peptide 1329.14] |  |  | A*0201: 0.0490
CILESLFRAV |  | 0.0003 | 
CILESLFRAVI | 0.0030 |  | 
CKPEEALEA |  | <0.0002 | 
CLGLSYDGLL |  | 0 | 
CLLAKTCPV [Peptide 1326.01] |  |  | A*0201: 0.0400
CQLAKTCPV [Peptide 1324.07] |  |  | A*0201: 0.0240

Substance | binding to HLA-A2.1 (column 3; no allele head shown for these rows) | A2.1 | other results
DLESEFQAA | 0 |  | 
DLESEFQAAI | 0 |  | 
DLESEFQAAISRKMV | 0 |  | 
DLQQSLRVL |  | 0 | 
DLVGFLLL |  | 0 | 
DLVQEKYL |  | 0 | 
DLVQEKYLEYRQV | 0 |  | 
DPTGHSYVL |  | <0.0002 | 
EADPTGHSYV | 0 |  | 
EALEAQQEA | 0 |  | 
EALGLVCVQA | 0.0005 |  | 
EAQQEALGLV | 0 |  | 
EIFGKASESL |  | 0 | 
EIWEELSV | 0 |  | 
EIWEELSVM | 0 |  | 
ELSVMEVYD |  | <0.0002 | 
EVDPIGHLYI | <0.0002 |  | 
EVVPISHLYI | <0.0002 |  | 
FLIIVLVM |  | 0 | 
FLIIVLVMI |  | 0.0005 | 
FPTTINFTR |  | <0.0002 | 
GIDVKEADPT | 0 |  | 
GIELMEVDPI | <0.0002 |  | 
GIEVVEVVPI | <0.0002 |  | 
GKASESLQL |  | <0.0002 | 

Substance | binding to HLA-A2.1 (column 3; no allele head shown for these rows) | A2.1 | other results
GLLGDNQI |  | 0 | 
GLSYDGLL |  | 0.0001 | 
GLSYDGLLV | 0.0047 |  | 
GLYDGMEHV [Peptide 1586.08] |  |  | IC50: 0.155 µM
GLYDGREHTV [Peptide 1586.06] |  |  | IC50: 0.144 µM
GMCCPDLSPV [Peptide 41.0157] |  |  | A*0201: 0.0950
GREHSAYGE |  | <0.0002 | 
GVQGPSLKPA |  | 0.0001 | 
GVQGPSLKPAM | 0 |  | 
HAPEEEIWE |  | <0.0002 | 
IIAIEGDCA | 0 |  | 
IIAREGDCA | 0 |  | 
IIVLVMIA | 0.0002 |  | 
IIVLVMIAM | 0.0007 |  | 
IJIGVLVGV [Peptide 1345.01] |  |  | A*0201: 0.0570
ILESLFRAV |  | 0.0004 | 
ILESLFRAVI |  | 0.0002 | 
IMPKAGLLI | 0.0064 |  | 
IMPKAGLLII | 0.0015 |  | 
IMPKTGFL |  | 0.0001 | 
ITKKVADLV | 0 |  | 
IVLVMIAM | 0.0001 |  | 
KAEMLGSVV | 0 |  | 
KAGLLIIVLA | <0.0002 |  | 
KASESLQLV | 0.0009 |  | 

Substance | binding to HLA-A2.1 (column 3; no allele head shown for these rows) | A2.1 | other results
KASEYLQLV | 0.011 |  | 
KLLTQDLV |  | 0.0004 | 
KLLTQDLVQEKYL | 0.0060 |  | 
KLPGLLSRDL |  | 0 | 
KTGFLIIVL | 0.0006 |  | 
KTGFLIIVLV | 0.0012 |  | 
KTGLLIIVLA | <0.0002 |  | 
LAETSYVKV | 0 |  | 
LIIVLVMI | 0.0001 |  | 
LIIVLVMIA | 0 |  | 
LIIVLVMIAM | 0.0003 |  | 
LLGDNQIM |  | 0 | 
LLIIVLAIIA | <0.0002 |  | 
LLKYRAREPV |  | 0 | 
LLSRDLQQSL |  | 0.0007 | 
LQLVFGIDV | 0.0004 |  | 
LVFGIELJEV [Peptide 1345.04] |  |  | A*0201: 0.7650
LVGFLLLKYRA | 0.0004 |  | 
LVMIAMEGG |  | <0.0002 | 
LVMIAMEGGHA | 0.0005 |  | 
MIAMEGGHA | 0.0005 |  | 
MLGSVVGNWQYFFPV | 0.012 |  | 
MSSCGVQGP |  | <0.0002 | 
PIGHLYIFA | 0 |  | 
PKTGFLIIV |  | <0.0002 | 

Substance | binding to HLA-A2.1 (column 3; no allele head shown for these rows) | A2.1 | other results
PLVLGTLEE |  | <0.0002 | 
PLVLGTLEEV |  | 0.0008 | 
PQSPQGASA |  | <0.0002 | 
PRKLLTQDL |  | <0.0002 | 
PTGHSYVLV | 0 |  | 
PTGHSYVLVT | 0 |  | 
PVTKAEML |  | 0 | 
PVTKAEMLESV | 0 |  | 
QAAISRKMV | 0 |  | 
QAALSRKVA | 0 |  | 
QIMPKAGLL |  | 0 | 
QIMPKTGFL |  | 0.0007 | 
QIMPKTGFLI | 0.0009 |  | 
QLVFGIDV |  | 0 | 
QLVFGIDVKEA | 0.0001 |  | 
QQEALGLVC |  | <0.0002 | 
QRQPSEGSS |  | <0.0002 | 
QVMPKTGLL | 0 |  | 
RAREPVTKA | 0 |  | 
RAVITKKVA | 0 |  | 
RCRTVIPHA |  | <0.0002 | 
RKLLTQDLV | 0 |  | 
RVRFFFPSL | 0.0001 |  | 
SAFPTTINFT | 0 |  | 
SESLQLVFGI | 0 |  | 
